These results are taken from FireProtDB (doi:10.1006/jmbi.1995.0323).

For this series the following is noted: Streptomyces albogriseolus, Thermal, DSC, reversible: yes, whole UniProt chain shown.

B1: Subtilisin inhibitor wild type, P01006 (protein)
chain: MRNTGAGPSPSVSRPPPSAAPLSGAALAAPGDAPSALYAPSALVLTVGKGVSATTAAPERAVTLTCAPGPSGTHPAAGSACADLAAVGGDLNALTRGEDVMCPMVYDPVLLTVDGVWQGKRVSYERVFSNECEMNAHGSSVFAF
Consider B1, for which the unfolding free energy was 5.55 kcal/mol (pH 3.2, 53.36 °C, glycine 25 mM); 6.03 kcal/mol (pH 7, 82.21 °C, Sodium phosphate 25 mM); 6.04 kcal/mol (pH 9.5, 80.7 °C, glycine 25 mM). The Tm (pH 3.2, glycine 25 mM) stood at 53.4 °C; the Tm (pH 7, Sodium phosphate 25 mM) worked out at 82.2 °C; the Tm (pH 9.5, glycine 25 mM) is 80.7 °C. Moreover, the “unfolding enthalpy (calorimetric)” value runs as follows: (pH 3.2, glycine 25 mM) 106 kcal/mol; (pH 7, Sodium phosphate 25 mM) 190 kcal/mol; (pH 9.5, glycine 25 mM) 186 kcal/mol.

As usually defined, the Tm is the temperature at the midpoint of the melting transition.
